Measurements from publication doi:10.1101/361857 (bioRxiv, 2018).
Where two headings read alike, the source gives them in different places. Ends that are not written are not given here. * marks the point of attachment. diazirine‑based cleavable photocrosslinker = not defined here; Biotin = O=C1N[C@H]2[C@H](CS[C@H]2CCCCC(=O)*)N1

Columns and labels:
Assay in all cases: cross-linking
[1] = target: T1, JNK1 β-1 isoform lacking 20 amino acids from the C-terminus (JNK1 ΔC20) (human, UniProt P45983-3 1-364)
ERK2 = ERK2 (human, UniProt P28482 1-360)
Sequence of ERK2 (P28482 whole entry, canonical isoform): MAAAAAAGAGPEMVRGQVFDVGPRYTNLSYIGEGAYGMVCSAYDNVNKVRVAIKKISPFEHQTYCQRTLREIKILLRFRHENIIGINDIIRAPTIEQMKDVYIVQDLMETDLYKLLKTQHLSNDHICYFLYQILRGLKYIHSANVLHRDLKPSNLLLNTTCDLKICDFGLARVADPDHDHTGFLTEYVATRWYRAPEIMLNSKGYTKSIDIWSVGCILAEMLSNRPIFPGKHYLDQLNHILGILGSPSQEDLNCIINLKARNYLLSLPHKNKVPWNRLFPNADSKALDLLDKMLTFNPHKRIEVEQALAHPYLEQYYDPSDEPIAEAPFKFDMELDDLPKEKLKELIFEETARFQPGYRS

[2] = target: T1, JNK1 β-1 isoform lacking 20 amino acids …; remark: listed apart in the source

binding result [1] | binding result (ERK2) | binding result [2] | Binder
binds | – | – | Biotin-C(diazirine‑based cleavable photocrosslinker)QGKRKALKLNFANW (reading uncertain) [MKK4 D-motif peptide wt (wild-type)]
– | binds | binds | Biotin-C(diazirine‑based cleavable photocrosslinker)KRKALKLNFANW (reading uncertain) [MKK4 D-motif peptide II]
– | binds | binds | Biotin-C(diazirine‑based cleavable photocrosslinker)GKRKALKLNFANW (reading uncertain) [MKK4 D-motif peptide I]
